These results are taken from article PMC4446944, “The maize cytochrome P450 CYP79A61 produces phenylacetaldoxime and indole-3-acetaldoxime in heterologous systems and might contribute to plant defense and auxin formation” (BMC Plant Biology, 2015).

Substrate in data set [1]: N[C@@H](Cc1c[nH]c2ccccc12)C(=O)O
Description: yeast microsomes, LC-MS/MS of (E/Z)-indole-3-acetaldoxime formed. The format is biochemical, Zea mays. Conditions: 1 mM NADPH, 75 mM sodium phosphate pH 7.0, 25 °C, 30 min, microsomes with Arabidopsis CPR1.

Substrate in data set [2]: N[C@@H](Cc1ccccc1)C(=O)O
The experiment in a line: yeast microsomes, LC-MS/MS of (E/Z)-phenylacetaldoxime formed. In kind it is biochemical, Zea mays. As to conditions: 1 mM NADPH, 75 mM sodium phosphate pH 7.0, 25 °C, 30 min, microsomes with Arabidopsis CPR1.

B1: CYP79A61 (Zea mays subsp. mays) (protein)
chain: MVSSPQANKFPLRKQISSPSSSCMAPHVLLVLVILLYLVRTLRPWRSRRNSTCCTPSLPPGPVPWPVVGNLPEMMLSDKPAFHWIHHIMKEAGTDIACIKLGGVHVIPISCPKIALEVLSNQDANFASRPLTFASKTFSTGYRDAAMSHCGDHWKKMRRVLASEIVCPSRHRWLHDKRADEADNLTRYVYNLATKAGSSGAVDVRHIARHYCGNVVRRLMFNTRYFGKPQPDSGPGPLEVQHVDAVFTSLGLLYSFCVSDYLPWLLGLDLDGHEKMVKEANERVTRLHDAVIDERWRLWKSGERRELEDFLDVLIMLKDAEAGRPVLSIEEVKALLMDITFASMDNPSNAVEWALAEMVNNPTMLKKAVDEIDSVVGQERLVQEHDIPRLNYTKACIREAFRLHPVAPFNVPHVAVADATVAGYRIPKGSHVILSRTGLGRNPDVWDDPLRFDPERHIPLSPEMEVSLVERDLRFISFSTGRRGCIAAALGTDMTIMLFGRLLQGFSWSKMTGVAAIDLSESRHNTFMARPLVLQAKPRLPAHLYPGILLCK
notes: complete open reading frame, untagged as far as told, pESC-Leu2d, Saccharomyces cerevisiae WAT11 microsomes with Arabidopsis CPR1
As for B1, the Km in data set [1] came to 150.2 ± 9.2 µM; in data set [2], 117.2 ± 6.0 µM.

As usually defined, the Km is the substrate concentration at which the rate is half of its maximum.
